Assay results as given in patent publication US20120178693A1.

Molecular target: CMK-inhibited FVII (human Factor VII treated with a 'Phe-Pro-Arg' peptide based chloromethylketone inhibitor) (UniProt P08709)
Sequence of UniProt P08709 (P08709 61-466): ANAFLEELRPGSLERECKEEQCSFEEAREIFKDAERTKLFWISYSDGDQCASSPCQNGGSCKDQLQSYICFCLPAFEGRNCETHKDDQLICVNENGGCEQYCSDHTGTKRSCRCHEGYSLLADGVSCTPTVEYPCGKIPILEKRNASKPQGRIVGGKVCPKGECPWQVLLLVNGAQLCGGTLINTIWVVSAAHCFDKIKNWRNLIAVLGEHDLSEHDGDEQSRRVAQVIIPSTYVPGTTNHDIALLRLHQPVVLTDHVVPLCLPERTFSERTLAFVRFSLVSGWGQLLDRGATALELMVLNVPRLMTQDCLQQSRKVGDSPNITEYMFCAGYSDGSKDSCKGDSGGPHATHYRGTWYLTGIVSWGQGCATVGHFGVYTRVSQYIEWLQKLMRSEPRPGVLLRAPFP

thrombin
activation of FVII by thrombin (rate of hydrolysis of the chromogenic substrate Chromozym-tPA): a low activation of FVII by thrombin was measured
